Laboratory results taken from patent publication US20200040059A1.
Each block holds one substance with its values, some of them ahead of it.

How the values were obtained:
CD96 [1] = biological target: T1, CD96 (UniProt P40200); experiment: flow cytometry, CD96-expressing cells
T1 sequence (looked up): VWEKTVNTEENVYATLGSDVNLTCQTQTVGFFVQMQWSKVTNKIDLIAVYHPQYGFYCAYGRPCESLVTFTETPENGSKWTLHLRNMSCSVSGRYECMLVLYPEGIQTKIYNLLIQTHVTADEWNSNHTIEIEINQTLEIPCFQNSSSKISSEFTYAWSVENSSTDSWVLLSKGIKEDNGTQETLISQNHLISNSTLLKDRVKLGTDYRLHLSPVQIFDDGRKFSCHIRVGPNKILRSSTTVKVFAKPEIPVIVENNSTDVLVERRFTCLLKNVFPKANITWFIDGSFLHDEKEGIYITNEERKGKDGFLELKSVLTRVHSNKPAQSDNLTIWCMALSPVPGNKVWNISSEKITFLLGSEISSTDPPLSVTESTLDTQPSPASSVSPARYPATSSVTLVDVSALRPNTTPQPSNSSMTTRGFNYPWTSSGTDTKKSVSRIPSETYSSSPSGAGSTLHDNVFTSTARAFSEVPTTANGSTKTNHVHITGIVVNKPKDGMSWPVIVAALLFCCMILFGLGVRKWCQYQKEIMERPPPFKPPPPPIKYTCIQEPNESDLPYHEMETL

CD226 (human) [2] = biological target: T2, CD226 (human) (UniProt Q15762); experiment: flow cytometry, CD226-expressing cells
T2 sequence: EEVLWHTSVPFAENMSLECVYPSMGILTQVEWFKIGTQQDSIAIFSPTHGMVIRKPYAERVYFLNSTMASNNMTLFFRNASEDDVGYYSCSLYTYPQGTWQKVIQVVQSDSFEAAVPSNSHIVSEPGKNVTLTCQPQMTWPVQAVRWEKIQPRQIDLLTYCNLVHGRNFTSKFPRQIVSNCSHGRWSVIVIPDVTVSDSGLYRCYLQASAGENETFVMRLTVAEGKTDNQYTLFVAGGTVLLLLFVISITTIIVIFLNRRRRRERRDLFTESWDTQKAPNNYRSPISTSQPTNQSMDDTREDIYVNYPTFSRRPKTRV

[3] = biological target: PD-1 (Homo sapiens (Human)) (UniProt Q15116); experiment: flow cytometry, Jurkat/PD-1 cells
Sequence of PD-1 (Homo sapiens (Human)) (Q15116 21-288 limits assumed, form in doubt): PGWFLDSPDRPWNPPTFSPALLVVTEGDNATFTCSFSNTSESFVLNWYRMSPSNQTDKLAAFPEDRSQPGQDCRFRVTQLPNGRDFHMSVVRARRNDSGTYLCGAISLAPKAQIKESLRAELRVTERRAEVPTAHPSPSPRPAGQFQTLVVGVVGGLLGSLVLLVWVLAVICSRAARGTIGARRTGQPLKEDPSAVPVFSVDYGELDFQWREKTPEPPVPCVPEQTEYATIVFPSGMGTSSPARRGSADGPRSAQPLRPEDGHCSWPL

[4] = biological target: human CD28, full-length, expressed on transfected Expi293 cells (human) (UniProt P10747); experiment: flow cytometry on CD28-expressing Expi293 cells
[5] = biological target: human ICOS as used for the 'ICOS OD' read-out of Table 14 (human); experiment: binding read as OD; format not described
Sequence of human ICOS as used for the 'ICOS OD' read-out of Table 14 (human) (Q9Y6W8 whole entry): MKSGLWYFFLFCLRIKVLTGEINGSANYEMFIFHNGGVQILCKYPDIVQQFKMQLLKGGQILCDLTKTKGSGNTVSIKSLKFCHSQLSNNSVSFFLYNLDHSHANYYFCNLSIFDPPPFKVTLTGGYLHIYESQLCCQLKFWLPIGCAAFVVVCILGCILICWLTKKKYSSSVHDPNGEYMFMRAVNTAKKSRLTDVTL

[6] = biological target: T3, CD96 (expressed on cells) (UniProt P40200); experiment: flow cytometry on cells expressing the target, 20 nM
T3 sequence (looked up): T1 sequence (looked up)

[7] = biological target: CD112R (full length, expressed on transfected cells) (human) (UniProt Q6DKI7); experiment: as above
Sequence of CD112R (full length, expressed on transfected cells) (human) (Q6DKI7 whole entry): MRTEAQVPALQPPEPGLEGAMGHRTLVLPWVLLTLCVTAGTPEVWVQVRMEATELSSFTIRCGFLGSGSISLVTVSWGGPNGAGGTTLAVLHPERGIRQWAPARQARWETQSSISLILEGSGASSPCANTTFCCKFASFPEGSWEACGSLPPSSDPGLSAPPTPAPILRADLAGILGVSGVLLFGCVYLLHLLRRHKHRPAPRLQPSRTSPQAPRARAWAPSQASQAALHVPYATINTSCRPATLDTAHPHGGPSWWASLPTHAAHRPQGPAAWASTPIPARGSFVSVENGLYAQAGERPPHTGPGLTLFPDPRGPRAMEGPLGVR

CD96 [8] = biological target: T1, CD96; experiment: flow cytometry on CD96-expressing cells
[9] = biological target: PD-1 on Jurkat/PD-1 cells; experiment: flow cytometry on Jurkat/PD-1 cells, 50 nM
[10] = biological target: PD-1 on Jurkat/PD-1 cells; experiment: flow cytometry, 50 nM; ratio to wild type PD-L1 IgV-Fc
PD-L1 (human) = PD-L1 (human) (UniProt Q9NZQ7); experiment: flow cytometry, transfected cells
Sequence of PD-L1 (human) (Q9NZQ7 19-290 limits assumed): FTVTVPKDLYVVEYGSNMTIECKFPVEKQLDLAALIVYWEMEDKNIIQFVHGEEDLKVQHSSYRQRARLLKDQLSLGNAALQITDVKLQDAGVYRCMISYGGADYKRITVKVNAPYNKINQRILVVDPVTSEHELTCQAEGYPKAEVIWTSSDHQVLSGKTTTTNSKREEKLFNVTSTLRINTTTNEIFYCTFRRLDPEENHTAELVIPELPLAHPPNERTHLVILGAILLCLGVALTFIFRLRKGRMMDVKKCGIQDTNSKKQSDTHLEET

CD28 (human) = CD28 (human) (UniProt P10747); experiment: flow cytometry, transfected cells
TIGIT (human) [11] = biological target: T4, TIGIT (human) (UniProt Q495A1); experiment: flow cytometry, transfected cells
T4 sequence: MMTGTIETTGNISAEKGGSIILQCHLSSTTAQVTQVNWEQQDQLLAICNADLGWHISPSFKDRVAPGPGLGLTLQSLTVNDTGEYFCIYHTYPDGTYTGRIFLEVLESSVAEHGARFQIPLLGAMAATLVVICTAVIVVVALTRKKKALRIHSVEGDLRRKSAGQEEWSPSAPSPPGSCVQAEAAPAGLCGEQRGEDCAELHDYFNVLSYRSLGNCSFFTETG

CD96 [12] = biological target: T1, CD96; experiment: flow cytometry, cells
TIGIT (human) [13] = biological target: T4, TIGIT (human); experiment: flow cytometry, TIGIT-expressing cells
CD226 (human) [14] = biological target: T2, CD226 (human); experiment: flow cytometry, transfected cells
PD-1-Fc = experiment: Fortebio (BLI), PD-1-Fc

Sequence of CD155 Wild type IgV-Fc (P15151 24-139 limits assumed): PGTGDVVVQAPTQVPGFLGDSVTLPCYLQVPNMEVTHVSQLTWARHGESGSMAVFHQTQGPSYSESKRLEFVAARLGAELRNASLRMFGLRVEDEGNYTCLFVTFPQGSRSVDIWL
Sequence of WT CD112 IgV Fc fusion (Q92692 32-156 limits assumed): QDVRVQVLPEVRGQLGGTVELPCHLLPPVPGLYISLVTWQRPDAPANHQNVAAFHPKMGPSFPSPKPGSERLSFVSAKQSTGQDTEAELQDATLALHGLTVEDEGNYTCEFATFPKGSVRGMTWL
Sequence of Domain 1: CD80 WT / Domain 2: CD86 WT / Fc (Fc fusion) (chain): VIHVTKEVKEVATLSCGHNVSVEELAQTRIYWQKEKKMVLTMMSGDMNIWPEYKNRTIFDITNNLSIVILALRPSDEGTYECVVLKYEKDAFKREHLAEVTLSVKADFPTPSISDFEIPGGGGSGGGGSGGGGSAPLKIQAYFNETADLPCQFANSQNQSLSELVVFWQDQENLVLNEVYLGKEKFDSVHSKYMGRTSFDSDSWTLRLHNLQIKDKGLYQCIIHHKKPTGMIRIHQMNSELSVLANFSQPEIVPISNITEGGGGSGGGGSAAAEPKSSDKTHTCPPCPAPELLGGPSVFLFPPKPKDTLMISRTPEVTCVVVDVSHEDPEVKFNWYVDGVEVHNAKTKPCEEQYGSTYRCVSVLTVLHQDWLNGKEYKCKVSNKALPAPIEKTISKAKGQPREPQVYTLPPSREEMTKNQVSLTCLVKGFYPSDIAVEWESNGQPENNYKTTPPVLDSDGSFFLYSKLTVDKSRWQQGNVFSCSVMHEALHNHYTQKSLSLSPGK

Substance: variant PD-L2 IgV-Fc I13V, H15Q, E44V, T47A, Q82R, V89D (Fc fusion)
MFI at 50 nM [3]: 61000

Substance: ICOSL variant N52S/Y152H ECD-Fc fusion
MFI [4]: 68 MFI | MFI parental ratio (ratio to WT ICOSL ECD-Fc) [4]: 3.78 | ICOS OD [5]: 0.85 OD | ICOS OD parental ratio (ratio to WT ICOSL ECD-Fc) [5]: 0.99

Substance: Domain 1: CD80 WT / Domain 2: CD86 WT / Fc (Fc fusion)
MFI (PD-L1 (human)): 2080 | MFI (CD28 (human)): 60300

Substance: CD155 P18S, F91P IgV-Fc (from UniProt P15151 24-139) (Fc fusion)
MFI (TIGIT (human) [11]): 3220 | MFI (CD96 [12]): 2680

Substance: CD155 variant IgV-Fc A13R, D23Y, E37P, S42P, Q62Y, A81E (from UniProt P15151 24-139) (Fc fusion)
MFI at 100 nM (CD96 [1]): 5760 MFI | MFI at 100 nM (TIGIT (human) [13]): 4160 MFI | MFI at 100 nM (CD226 (human) [2]): 11700 MFI

Substance: ICOSL variant N52S/S54P ECD-Fc fusion
ICOS OD [5]: 1.5 OD

Substance: PD-L1 IgV A33D, S75P Fc fusion (SEQ ID NO 1310)
MFI at 50 nM [9]: 1790 | Fold increase over wildtype PD-L1 IgV-Fc [10]: 0.3 fold

Substance: PD-L1 IgV I20L, A33D, D43G, N45D, V58A, N78I Fc fusion
MFI at 50 nM [9]: 80200 | Fold increase over wildtype PD-L1 IgV-Fc [10]: 15.3 fold

Substance: Full length PD-L1 Fc (from UniProt Q9NZQ7 19-239) (Fc fusion)
MFI at 50 nM [9]: 18500 | Fold increase over wildtype PD-L1 IgV-Fc [10]: 3.5 fold

Continued, values first:

MFI at 11.1 nM (CD96 [1]): 1500 MFI | MFI at 11.1 nM (CD226 (human) [2]): 835 MFI
Substance: CD155 variant IgV-Fc V9L, P18T, Q62R, L79P, F91S, L104M, G111R (from UniProt P15151 24-139) (Fc fusion)

MFI at 20 nM [6]: 2500 | MFI at 20 nM [7]: 1660
Substance: WT CD112 IgV Fc fusion (from UniProt Q92692 32-156)

MFI at 100 nM (CD96 [8]): 4060 MFI
Substance: CD112 variant R12W, A46T, K66M, Q79R, N106I, T113A, S118F IgV-Fc (from UniProt Q92692 32-156) (Fc fusion)

MFI at 50 nM [9]: 29800 | Fold increase over wildtype PD-L1 IgV-Fc [10]: 5.7 fold
Substance: PD-L1 IgV I20L, E27G, N45T, V50A Fc fusion

MFI at 11.1 nM (CD226 (human) [2]): 1190 MFI
Substance: CD155 variant IgV-Fc P18S, A47G, L79P, F91S, L104M, T107A, R113W (from UniProt P15151 24-139) (Fc fusion)

MFI (CD226 (human) [14]): 409000 | MFI (CD96 [12]): 147000
Substance: CD155 P18S, F91S IgV-Fc (from UniProt P15151 24-139) (Fc fusion)

MFI at 100 nM (CD96 [1]): 2890 MFI | MFI at 100 nM (TIGIT (human) [13]): 3210 MFI | MFI at 100 nM (CD226 (human) [2]): 8320 MFI
Substance: CD155 variant IgV-Fc L79P, L104M (from UniProt P15151 24-139) (Fc fusion)

MFI at 50 nM [9]: 72700 | Fold increase over wildtype PD-L1 IgV-Fc [10]: 13.9 fold
Substance: PD-L1 IgV I20L, D43G, N45D, V58A, N78I Fc fusion

MFI at 50 nM [3]: 53700 | Fortebio binding to PD-1-Fc Response Units (Response Units) (PD-1-Fc): 1.6
Substance: variant PD-L2 IgV-Fc I13V, H15Q, T47A, R76G, V89D (Fc fusion)

MFI at 11.1 nM (CD226 (human) [2]): 803 MFI
Substance: CD155 variant IgV-Fc V9I, Q12K, P18F, S65A, S67V, L79P, L104T, G111R, S112I (from UniProt P15151 21-139) (Fc fusion)

MFI at 50 nM [3]: 16000
Substance: variant PD-L2 IgV-Fc H15Q, S67L, I86T (Fc fusion)

MFI (CD226 (human) [14]): 3720 | MFI (TIGIT (human) [11]): 2720 | MFI (CD96 [12]): 3080
Substance: CD155 Wild type IgV-Fc (from UniProt P15151 24-139) (Fc fusion)

MFI at 100 nM (CD96 [1]): 3090 MFI | MFI at 100 nM (TIGIT (human) [13]): 3820 MFI | MFI at 100 nM (CD226 (human) [2]): 11400 MFI
Substance: CD155 variant IgV-Fc P18S, V41A, S42G, T45G, L104N (from UniProt P15151 24-139) (Fc fusion)
